Test [1] concerns the target T1, 人的PD-1胞外区与小鼠Fc融合蛋白(PD-1-ECD-mFc) (human, UniProt Q15116 25-170).
T1 construct: extracellular domain; also called PD-1-mFc; not shown: mouse Fc
The experiment in a line: ELISA on coated PD-1-mFc (antigen per legend of figure 6). In general terms: ELISA stands for enzyme-linked immunosorbent assay.

The target in test [2] is T2, 人的PD-1胞外区与人Fc融合蛋白(PD-1-ECD-hFc) (human, UniProt Q15116 25-170).
T2 construct: extracellular domain; Coated on ELISA plates; also called PD-1-hFc; not shown: human Fc
The test can be described thus: competition ELISA, coated PD-1-hFc (per table title; figure 7 legend says PD-1-mFc), competitor PD-L1-Biotin.

The target of test [3] is T3, PD-1 on 293T-PD-1 cells (UniProt Q15116 25-288, limits assumed).
T3 construct: whole, on cells; the antibodies are anti-human PD-1
The test can be described thus: FACS on 293T-PD-1 cells.

Test [4] concerns the target T3, PD-1 on 293T-PD-1 cells. The experiment in a line: FACS on 293T-PD-1 cells, PE goat anti-mouse detection.
In test [5] the target is T3, PD-1 on 293T-PD-1 cells. The experiment in a line: competition FACS on 293T-PD-1 cells, competitor PD-L1-biotin (row head prints EC50, title IC50).
Test [6] deals with T2, 人的PD-1胞外区与人Fc融合蛋白(PD-1-ECD-hFc). The test can be described thus: competition ELISA, PD-1-ECD-hFc coated, competitor PD-L1-Biotin.
Test [7] has the same target. The test can be described thus: ELISA, PD-1-ECD-hFc coated, goat anti-mouse IgG detection.

In patent publication CN114316047A (DONGDA BIOTECHNOLOGY SUZHOU CO LTD, dated 2022) one finds EC50 and IC50 data, which are given here for 8 molecules.

One may read the EC50 as the concentration that produces a half-maximal response. In general, IC50 refers to the midpoint of a concentration-inhibition curve.

T2 sequence (Q15116 25-170): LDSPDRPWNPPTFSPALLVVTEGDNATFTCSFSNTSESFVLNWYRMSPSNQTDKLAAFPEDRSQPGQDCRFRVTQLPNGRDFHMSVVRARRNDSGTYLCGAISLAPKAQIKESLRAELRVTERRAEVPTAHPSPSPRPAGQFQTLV
T3 sequence (Q15116 25-288 limits assumed): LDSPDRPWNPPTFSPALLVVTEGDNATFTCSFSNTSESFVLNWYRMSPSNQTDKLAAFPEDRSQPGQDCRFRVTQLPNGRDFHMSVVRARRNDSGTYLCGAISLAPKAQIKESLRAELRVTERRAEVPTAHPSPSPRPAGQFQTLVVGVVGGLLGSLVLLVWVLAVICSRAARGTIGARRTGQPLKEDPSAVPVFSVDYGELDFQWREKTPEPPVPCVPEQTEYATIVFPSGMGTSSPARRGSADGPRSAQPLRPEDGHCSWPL
T1 sequence (Q15116 25-170): as the sequence (Q15116 25-170) above

B1: hu8D4-hIgG4 (antibody, part only; not given: Light chain variable domain, constant regions, V domains shown, part only)
VH: QVQLVQSGAEVKKPGASVKVSCKASGYTFTNFWMHWVRQAPGQRLEWIGAIFPGNTDTTYNRKFKDRATLTADTSASTAYMELSSLRSEDTAVYYCTRNHYGLDYWGQGTLVTVSS
Regarding B1, the results for the EC50 (in test [1]; in the test with PD-1 on 293T-PD-1 cells [3]) were 0.0489 µg/mL and 0.311 µg/mL, respectively. Also, the IC50 in test [2] was determined as 0.851 µg/mL.

B2: 4B5 (antibody, V domains shown)
VH: EVILVESGGDLVKPGGSLKLSCAASGFTFSSYMMSWVRQTPEKRLEWVATISGGGANTYYLDSMKGRFTISRDNAKNILYLQMSSLRSEDTAFYYCARQSDRGFPYWGQGTLVTVSA
VL: DIQMTQSPASQSASLGESVTITCLASQPIGTWLAWYQQKPGTSPQLLIFAATTLTDGVPSRFSGSGSGTKFSFKISSLQAEDFVSYYCQQFSSIPYTFGGGTRLEIK
notes: Mouse monoclonal antibody purified from hybridoma supernatant by Protein A; also called 鼠源PD-1单克隆抗体4B5; PD-1杂交瘤抗体4B5
Turning to B2, the results for the EC50 (with PD-1 on 293T-PD-1 cells [4]; in test [7]) were 0.04 µg/mL and 0.00175 µg/mL, respectively. For the same molecule, the results for the IC50 (in the test with PD-1 on 293T-PD-1 cells [5]; in test [6]) were 0.0355 µg/mL and 0.343 µg/mL, respectively.

B3: 10A10 (antibody, V domains shown)
VH: EVKLVESGGDLVKPGGSLKLSCAASGFTFNYYDISWVRQTPEKRLEWVATISGGGRYTYYLDNVQGRFTISRDNAKNILYLQMNSLRSDDTALYFCASPYEGAMDYWGQGTSVTVSS
VL: DIVMTQSHKFMSTSIGDGVNITCKASQDVGTAVAWYQQKPGQSPKLLNKWASTRHTGVPDRFTGSGSGTDFTLTINNVQSEDLADYFCQQYSTFPYTFGGGTNLELK
notes: Mouse monoclonal antibody purified from hybridoma supernatant by Protein A; also called 鼠源PD-1单克隆抗体10A10; PD-1杂交瘤抗体10A10
Consider B3, for which the EC50 amounted to 0.0314 µg/mL in the test with PD-1 on 293T-PD-1 cells [4] and 0.00114 µg/mL in test [7]. Moreover, the IC50 with PD-1 on 293T-PD-1 cells [5] amounted to 0.0276 µg/mL; in test [6], 0.361 µg/mL.

B4: 9H8 (antibody, V domains shown)
VH: EVKLVESGGGLVQPGGSLKLSCATSGFTFSDYYMYWVRQTPEKRLEWVAQISNGGGNTYYPDTVKGRFTISRDNAKNTLYLQMSRLKSEDTAIYYCSKSYYKYDGWYFDVWGAGTTVTVSS
VL: DIVLTQSPASLAVSLGQRATISCRASESVEYSRTSLIQWYQLKPGQPPKLLIYAASYVESGVPDRFSGSGSGTEFSFNIHPVEEDDIAMYFCQQARKVPWTFGGGTNLEIK
notes: Mouse monoclonal antibody purified from hybridoma supernatant by Protein A; also called 鼠源PD-1单克隆抗体9H8; PD-1杂交瘤抗体9H8
As for B4, the figures for the EC50 (in the test with PD-1 on 293T-PD-1 cells [4]; in test [7]) were 0.0203 µg/mL and 0.000511 µg/mL, respectively. The results for the IC50 (with PD-1 on 293T-PD-1 cells [5]; in test [6]) were 0.00854 µg/mL and 0.319 µg/mL, respectively.

B5: hu9H8-hIgG4 (antibody, V domains shown)
VH: EVQLLESGGGLVQPGGSLRLSCAASGFTFSDYYMYWVRQAPGKGLEWVSQISNGGGNTYYPDTVKGRFTISRDNSKNTLYLQMNSLRAEDTAVYYCSKSYYKYDGWYFDVWGQGTLVTVSS
VL: DIVMTQSPDSLAVSLGERATINCRASESVEYSRTSLIQWYQQKPGQPPKLLIYAASYVESGVPDRFSGSGSGTDFTLTISSLQAEDVAVYYCQQARKVPWTFGQGTKLEIK
notes: Humanised antibody built as IgG4 subtype, expressed in 293 cells; also called 9H8人源化抗体; 人源化抗体9H8
Consider B5, for which the EC50 in test [1] came to 0.00532 µg/mL; with PD-1 on 293T-PD-1 cells [3], 0.285 µg/mL. Also, the IC50 in test [2] turned out to be 0.332 µg/mL.

B6: 8D4 (antibody, V domains shown)
VH: EVQLQQSGTVLARPGASVKMSCKTSGYTFTNFWMHWVKQRPGQGLDWIGAIFPGNTDTTYNRKFKDKAKLTAVTSASTAYMELSSLTNEDSAVYYCTRNHYGLDYWGQGTSVTVSS
VL: DIVLTQSPASLAVSLGQRATISCRASESVSIHGTHLMHWYQQKPGQPPKLLIYIASNLGSGVPARFSGSGSETDFTLNIHPVEEEDAATYFCQQSIEDPWTFGGGTKLEIK
notes: Mouse monoclonal antibody purified from hybridoma supernatant by Protein A; also called 鼠源PD-1单克隆抗体8D4; PD-1杂交瘤抗体8D4
Regarding B6, the EC50 with PD-1 on 293T-PD-1 cells [4] is 0.0443 µg/mL; in test [7] it was 0.00261 µg/mL. The IC50 amounted to 0.0296 µg/mL with PD-1 on 293T-PD-1 cells [5] and 0.37 µg/mL in test [6].

B7: 5F7 (antibody, V domains shown)
VH: EVMLVESGGDLVKPGGSLKLSCAASGFTFSSYMMSWVRQTPEKRLEWVAAISGGGGDTYYPDSVKGRFTISRDNAKNTLYLQMSSLRSEDTALYYCARRVVYAMDCWGQGTSVTVSS
VL: DIQMTQSPASQSASLGESVTITCLASQSIGTWLVWYQQKPGKSPQLLISAATSLADGVPSRFSGSGSGTKFSFKISSLQAEDFVSYYCQQLYIIPWTFGGGTKLEIK
notes: Mouse monoclonal antibody purified from hybridoma supernatant by Protein A; also called 鼠源PD-1单克隆抗体5F7; PD-1杂交瘤抗体5F7
Take B7: the 50% effective concentration (EC50) in the test with PD-1 on 293T-PD-1 cells [4] turned out to be 0.0176 µg/mL; in test [7] it was 0.00123 µg/mL. For the same molecule, the IC50 with PD-1 on 293T-PD-1 cells [5] turned out to be 0.0181 µg/mL; in test [6], 0.324 µg/mL.

B8: 5H10 (antibody, V domains shown)
VH: EVQLVESGGGLVKPGGSLKLSCAASGFTFSDYGMHWVRQAPEKGLEWVAYISGDSNTIYYADTVKGRFTISRDNAKNTLFLQMTSLRSEDTAMYYCTKRGPYYGYTHYFDYWGQGTTLTVSS
VL: SIVMTQTPKFLLVSAGDRVTMTCKASQSVSNDVVWYQQKPGQSPKLLIYYASKRYTGVPDRFTGNGYGTDFTFTISTVQAEDLAVYFCQQDYSSPWTFGGGTKLEIK
notes: Mouse monoclonal antibody purified from hybridoma supernatant by Protein A; also called 鼠源PD-1单克隆抗体5H10; PD-1杂交瘤抗体5H10
Consider B8, for which the EC50 with PD-1 on 293T-PD-1 cells [4] stood at 0.0643 µg/mL; in test [7], 0.00109 µg/mL. The IC50 is 0.0412 µg/mL with PD-1 on 293T-PD-1 cells [5] and 0.339 µg/mL in test [6].
